In patent US20190216947A1 one finds Kd, koff and kon data, which are given here for 1 substance.

The target in experiment [1] is Human CD47 (human) (UniProt Q08722). The experiment can be described thus: SPR.
For experiment [2], the target named is Mouse CD47 (mouse) (UniProt Q61735). The experiment can be described thus: SPR.
Mouse CD47 (mouse), sequence (Q61735 19-140 limits assumed): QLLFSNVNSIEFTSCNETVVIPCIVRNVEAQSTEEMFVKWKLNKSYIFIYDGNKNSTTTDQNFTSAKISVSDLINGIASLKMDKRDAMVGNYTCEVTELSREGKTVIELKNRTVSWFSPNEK

Human CD47 (human), sequence (Q08722 19-139 limits assumed): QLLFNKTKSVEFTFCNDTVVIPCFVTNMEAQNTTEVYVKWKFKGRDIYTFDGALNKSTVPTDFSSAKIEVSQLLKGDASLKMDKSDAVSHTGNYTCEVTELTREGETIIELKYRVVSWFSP

As usually defined, the Kd is the constant that tells how readily two partners part at equilibrium. Read a high Kd as a looser complex. In general, koff refers to the first-order rate constant of dissociation. The low end stands for slow dissociation, the high end for fast dissociation. Usually kon stands for a measure of how fast the partners come together. Consider monomeric SIRPα (mSIRPα) (receptor), for which, in experiment [1], the Kd came out at 0.0054 nM, the koff amounted to 3.7e-05 s⁻¹ and the kon stood at 7e+06 M⁻¹ s⁻¹. In experiment [2], this substance displayed an equilibrium dissociation constant (Kd) of 6.2 nM, a koff of 0.011 s⁻¹ and a kon of 1.8e+06 M⁻¹ s⁻¹.
